# Assay results: patent US20190177414A1
# pEC50: −log10 of the molar value.
# Key:
# [1] = target: CTLA4-mFc fusion protein (human); experiment: competitive ELISA; competitor B7-1-hFc coated 1 ug/ml; CTLA4-mFc 0.3 ug/ml; antibody dilution 1:243 from 3 ug/ml; replicate 1
# [2] = target: CTLA4-mFc fusion protein (human); experiment: competitive ELISA; competitor B7-1-hFc coated 1 ug/ml; CTLA4-mFc 0.3 ug/ml; antibody dilution 1:27 from 3 ug/ml; replicate 2
# [3] = target: CTLA4-mFc fusion protein (human); experiment: competitive ELISA; competitor B7-1-hFc coated 1 ug/ml; CTLA4-mFc 0.3 ug/ml; antibody dilution 1:3 from 3 ug/ml; replicate 1
# [4] = target: CTLA4-mFc fusion protein (human); experiment: competitive ELISA; competitor B7-1-hFc coated 1 ug/ml; CTLA4-mFc 0.3 ug/ml; antibody dilution 1:81 from 3 ug/ml; replicate 1
# [5] = target: CTLA4-mFc fusion protein (human); experiment: competitive ELISA; competitor B7-1-hFc coated 1 ug/ml; CTLA4-mFc 0.3 ug/ml; antibody dilution 1:729 from 3 ug/ml; replicate 1
# [6] = target: CTLA4-mFc fusion protein (human); experiment: competitive ELISA; competitor B7-1-hFc coated 1 ug/ml; CTLA4-mFc 0.3 ug/ml; antibody 0 (no antibody); replicate 2
# [7] = target: CTLA4-mFc fusion protein (human); experiment: competitive ELISA; competitor B7-1-hFc coated 1 ug/ml; CTLA4-mFc 0.3 ug/ml; antibody dilution 1:3 from 3 ug/ml; replicate 2
# [8] = target: CTLA4-mFc fusion protein (human); experiment: competitive ELISA; competitor B7-1-hFc coated 1 ug/ml; CTLA4-mFc 0.3 ug/ml; antibody dilution 1:9 from 3 ug/ml; replicate 1
# [9] = target: CTLA4-mFc fusion protein (human); experiment: competitive ELISA; competitor B7-1-hFc coated 1 ug/ml; CTLA4-mFc 0.3 ug/ml; antibody 0 (no antibody); replicate 1
# [10] = target: CTLA4-mFc fusion protein (human); experiment: competitive ELISA; competitor B7-1-hFc coated 1 ug/ml; CTLA4-mFc 0.3 ug/ml; antibody dilution 1:27 from 3 ug/ml; replicate 1
# [11] = target: CTLA4-mFc fusion protein (human); experiment: competitive ELISA; competitor B7-1-hFc coated 1 ug/ml; CTLA4-mFc 0.3 ug/ml; antibody 3 ug/ml; replicate 1
# [12] = target: CTLA4-mFc fusion protein (human); experiment: competitive ELISA; competitor B7-1-hFc coated 1 ug/ml; CTLA4-mFc 0.3 ug/ml; antibody dilution 1:729 from 3 ug/ml; replicate 2
# [13] = target: CTLA4-mFc fusion protein (human); experiment: competitive ELISA; competitor B7-1-hFc coated 1 ug/ml; CTLA4-mFc 0.3 ug/ml; antibody 3 ug/ml; replicate 2
# [14] = target: CTLA4-mFc fusion protein (human); experiment: competitive ELISA; competitor B7-1-hFc coated 1 ug/ml; CTLA4-mFc 0.3 ug/ml
# [15] = target: CTLA4-mFc fusion protein (human); experiment: competitive ELISA; competitor B7-1-hFc coated 1 ug/ml; CTLA4-mFc 0.3 ug/ml; antibody dilution 1:243 from 3 ug/ml; replicate 2
# [16] = target: CTLA4-mFc fusion protein (human); experiment: competitive ELISA; competitor B7-1-hFc coated 1 ug/ml; CTLA4-mFc 0.3 ug/ml; antibody dilution 1:9 from 3 ug/ml; replicate 2
# [17] = target: CTLA4-mFc fusion protein (human); experiment: competitive ELISA; competitor B7-1-hFc coated 1 ug/ml; CTLA4-mFc 0.3 ug/ml; antibody dilution 1:81 from 3 ug/ml; replicate 2
# CTLA4-mFc fusion protein (human), sequence (chain, as listed by the source limits assumed): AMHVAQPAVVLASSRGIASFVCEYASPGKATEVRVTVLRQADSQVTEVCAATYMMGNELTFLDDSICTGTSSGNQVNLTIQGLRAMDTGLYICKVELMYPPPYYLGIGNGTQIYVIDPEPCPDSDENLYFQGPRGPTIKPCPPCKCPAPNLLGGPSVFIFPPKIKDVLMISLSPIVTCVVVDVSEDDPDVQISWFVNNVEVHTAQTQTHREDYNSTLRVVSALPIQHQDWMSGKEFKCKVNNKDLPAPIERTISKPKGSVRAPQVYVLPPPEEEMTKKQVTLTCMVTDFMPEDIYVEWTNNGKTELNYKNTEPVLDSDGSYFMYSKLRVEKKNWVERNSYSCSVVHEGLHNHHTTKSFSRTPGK
substance,measurement,setting,value
control antibody 10D1 (anti-CTLA4 antibody),absorbance at 450 nm,[1],0.556
same,absorbance at 450 nm,[2],0.365
same,absorbance at 450 nm,[3],0.144
same,absorbance at 450 nm,[4],0.572
same,absorbance at 450 nm,[5],0.726
same,absorbance at 450 nm,[6],0.732
same,absorbance at 450 nm,[7],0.133
same,absorbance at 450 nm,[8],0.351
same,absorbance at 450 nm,[9],0.888
same,absorbance at 450 nm,[10],0.442
same,absorbance at 450 nm,[11],0.147
same,absorbance at 450 nm,[12],0.692
same,absorbance at 450 nm,[13],0.14
same,pEC50,[14],8.95
same,absorbance at 450 nm,[15],0.554
same,absorbance at 450 nm,[16],0.312
same,absorbance at 450 nm,[17],0.663
